Experimental data reported in article PMC9117659, “Phase transition and remodeling complex assembly are important for SS18-SSX oncogenic activity in synovial sarcomas” (Nature Communications, 2022).

B1: Human SS18 (residues 1-387), purified recombinant [human] / BRG1^(1-282), N-terminal 282-residue fragment of BRG1 [human] (parent complex)
chain 1: MSVAFAAPRQRGKGEITPAAIQKMLDDNNHLIQCIMDSQNKGKTSECSQYQQMLHTNLVYLATIADSNQNMQSLLPAPPTQNMPMGPGGMNQSGPPPPPRSHNMPSDGMVGGGPPAPHMQNQMNGQMPGPNHMPMQGPGPNQLNMTNSSMNMPSSSHGSMGGYNHSVPSSQSMPVQNQMTMSQGQPMGNYGPRPNMSMQPNQGPMMHQQPPSQQYNMPQGGGQHYQGQQPPMGMMGQVNQGNHMMGQRQIPPYRPPQQGPPQQYSGQEDYYGDQYSHGGQGPPEGMNQQYYPDGNSQYGQQQDAYQGPPPQQGYPPQQQQYPGQQGYPGQQQGYGPSQGGPGPQYPNYPQGQGQQYGGYRPTQPGPPQPPQQRPYGYDQGQYGNYQQ
chain 2: MSTPDPPLGGTPRPGPSPGPGPSPGAMLGPSPGPSPGSAHSMMGPSPGPPSAGHPIPTQGPGGYPQDNMHQMHKPMESMHEKGMSDDPRYNQMKGMGMRSGGHAGMGPPPSPMDQHSQGYPSPLGGSEHASSPVPASGPSSGPQMSSGPGGAPLDGADPQALGQQNRGPTPFNQNQLHQLRAQIMAYKMLARGQPLPDHLQMAVQGKRPMPGMQQQMPTLPPPSVSATGPGPGPGPGPGPGPGPAPPNYSRPHGMGGPNMPPPGPSGVPPGMPGQPPGGPPK

Variants of: B1
Assay: sedimentation assay; 60 µM each protein; parent: 65; read off a plot

screen value | Variant
~6% | chain 1 MSVAFAAPRQRGKGEITPAAIQKMLDDNNHLEQCIMDSQNKGKTSECSQYQQMEHTNLVYLATIEDSNQNMQSLLPAPPTQNMPMGPGGMNQSGPPPPPRSHNMPSDGMVGGGPPAPHMQNQMNGQMPGPNHMPMQGPGPNQLNMTNSSMNMPSSSHGSMGGYNHSVPSSQSMPVQNQMTMSQGQPMGNYGPRPNMSMQPNQGPMMHQQPPSQQYNMPQGGGQHYQGQQPPMGMMGQVNQGNHMMGQRQIPPYRPPQQGPPQQYSGQEDYYGDQYSHGGQGPPEGMNQQYYPDGNSQYGQQQDAYQGPPPQQGYPPQQQQYPGQQGYPGQQQGYGPSQGGPGPQYPNYPQGQGQQYGGYRPTQPGPPQPPQQRPYGYDQGQYGNYQQ [chain 1 I32E, chain 1 L54E, chain 1 A65E]
